According to patent US11795460B2, “Compositions and methods for TTR gene editing and treating ATTR amyloidosis” (Intellia Therapeutics, Inc., priority 2017, dated 2023):
Strand notation (5' to 3'): a small letter for the sugar, then the base; units joined by * are phosphorothioate-linked, units joined directly phosphodiester-linked; [ ] holds rarer units or linkages, { } end groups; capitals alone tell only the bases. m = 2'-O-methyl; r = 2'-OH (RNA)

Legend:
[1] = test system: TTR; assay: TTR editing in primary human hepatocytes transfected with Spy Cas9 protein and sgRNAs (Table 12); assay type: cell-based; settings: primary human hepatocytes transfected with Spy Cas9 protein (RNP) and sgRNAs
Method: (§1) Primary liver hepatocytes. Primary human liver hepatocytes (PHH) and primary cynomolgus liver hepatocytes (PCH) (Gibco) were cultured per the manufacturer's protocol (Invitrogen, protocol 11.28.2012). In brief, the cells were thawed and resuspended in hepatocyte thawing medium with supplements (Gibco, Cat. CM7000) followed by centrifugation at 100 g for 10 minutes for human and 80 g for 4 minutes for cyno. The supernatant was discarded and the pelleted cells resuspended in hepatocyte plating medium plus supplement pack (Invitrogen, Cat. A1217601 and CM3000). Cells were counted and plated on Bio-coat collagen I coated 96-well plates (ThermoFisher, Cat. 877272) at a density of 33,000 cells/well for human or 60,000 cells/well for cyno (or 65,000 cells/well when assaying effects on TTR protein, described further below). Plated cells were allowed to settle and adhere for 6 or 24 hours in a tissue culture incubator at 37° C. and 5% CO2 atmosphere. After incubation cells were checked for monolayer formation and media was replaced with hepatocyte culture medium with serum-free supplement pack (Invitrogen, Cat. A1217601 and CM4000).
[…] formation was performed prior to electroporation or transfection of Spy Cas9 protein loaded with guide RNAs (RNPs) onto cells. For dual guide (dgRNAs), individual crRNA and trRNA was pre-annealed by mixing equivalent amounts of reagent and incubating at 95° C. for 2 min and cooling to room temperature. Single guide (sgRNAs) were boiled at 95° C. for 2 min and cooling to room temperature. The boiled dgRNA or sgRNA was incubated with Spy Cas9 protein in Optimem for 10 minutes at room temperature to form a ribonucleoprotein (RNP) complex.
For RNP lipoplex transfections, cells were transfected with Lipofectamine RNAiMAX (ThermoFisher, Cat. 13778150) per the manufacturer's protocol. Cells were transfected with an RNP containing Spy Cas9 (10 nM), individual guide (10 nM), tracer RNA (10 nM), Lipofectamine RNAiMAX (1.0 μL/well) and OptiMem. RNP formation was performed as described above.
Transfected cells were harvested post-transfection at 24, 48, or 72 hours. The genomic DNA was extracted from each well of a 96-well plate using 50 μL/well BuccalAmp DNA Extraction solution (Epicentre, Cat. QE09050) per manufacturer's protocol. All DNA samples were subjected to PCR and subsequent NGS analyses, as described herein.
(§2) To quantitatively determine the efficiency of editing at the target location in the genome, sequencing was utilized to identify the presence of insertions and deletions introduced by gene editing.
(§3) Primers were designed around the target site within the gene of interest (e.g. TTR), and the genomic area of interest was amplified.
(§4) Additional PCR was performed per the manufacturer's protocols (Illumina) to add chemistry for sequencing. The amplicons were sequenced on an Illumina MiSeq instrument. The reads were aligned to a reference genome (e.g., the human reference genome (hg38), the cynomologus reference genome (mf5), the rat reference genome (rn6), or the mouse reference genome (mm10)) after eliminating those having low quality scores. The resulting files containing the reads were mapped to the reference genome (BAM files), where reads that overlapped the target region of interest were selected and the number of wild type reads versus the number of reads which contain an insertion, substitution, or deletion was calculated.
(§5) The editing percentage (e.g., the “editing efficiency” or “percent editing” or “indel frequency”) is defined as the total number of sequence reads with insertions/deletions (“indels”) or substitutions over the total number of sequence reads, including wild type.
Guides in modified sgRNA format targeting human and/or cyno TTR were delivered to primary human hepatocytes and primary cyno hepatocytes as described in Example 1. […]

[2] = test system: TTR; assay: EC50 and maximum editing in primary human hepatocytes treated with LNP formulated U-depleted Spy Cas9 mRNA and sgRNAs (Tables 19, 21); assay type: cell-based; set-up: key: % of sequence reads with indels or substitutions over total reads; settings: dose response
Method: as §1
(§6) For LNPs prepared using the cross-flow technique, the LNPs were formed by impinging jet mixing of the lipid in ethanol with two volumes of RNA solutions and one volume of water. The lipid in ethanol is mixed through a mixing cross with the two volumes of RNA solution. A fourth stream of water is mixed with the outlet stream of the cross through an inline tee. (See WO2016010840 FIG. 2.) The LNPs were held for 1 hour at room temperature, and further diluted with water (approximately 1:1 v/v). Diluted LNPs were concentrated using tangential flow filtration on a flat sheet cartridge (Sartorius, 100 kD MWCO) and then buffer exchanged by diafiltration into 50 mM Tris, 45 mM NaCl, 5% (w/v) sucrose, pH 7.5 (TSS). Alternatively, the final buffer exchange into TSS was completed with PD-10 desalting columns (GE). If required, formulations were concentrated by centrifugation with Amicon 100 kDa centrifugal filters (Millipore). The resulting mixture was then filtered using a 0.2 μm sterile filter. The final LNP was stored at 4° C. or −80° C. until further use.
as §2, §3, §4, §5
(§7) Lipid nanoparticle formulations of modified sgRNAs targeting human TTR and the cyno matched sgRNA sequences were tested on primary human hepatocytes and primary cyno hepatocytes in a dose response curve. Primary human and cyno hepatocytes were plated as described in Example 1. Both cell lines were incubated at 37° C., 5% CO2 for 24 hours prior to treatment with LNPs. […]

[3] = test system: TTR; assay: EC50 and maximum editing in primary cyno hepatocytes treated with LNP formulated U-depleted Spy Cas9 mRNA and sgRNAs (Tables 20, 22); assay type: cell-based, cynomolgus monkey; set-up: key: % of sequence reads with indels or substitutions over total reads; settings: dose response
Method: as §1, §6, §2, §3, §4, §5, §7

[4] = test system: human TTR sequence; assay: Liver editing in humanized TTR mice dosed with LNP formulations (Table 26); assay type: in vivo, mouse
[5] = Table 19, LNP with U-depleted Spy Cas9 mRNA and human specific sgRNAs
[6] = Table 20, LNP with U-depleted Spy Cas9 mRNA and human specific sgRNAs
[7] = 1, 0.3, or 0.1 mg/kg, Cas9 mRNA (SEQ ID NO: 1) 1:1 by weight to guide, FIG. 27A
[8] = 1, 0.3, or 0.1 mg/kg, Cas9 mRNA (SEQ ID NO: 1) 1:2 by weight to guide, FIG. 28A

| Molecule | Avg % Deletion [1] | Avg % Edit [1] | Avg % Insert [1] | Max Editing [2, 5] | Max Editing [3, 6] | Liver editing, dose response [4, 7] | Liver editing, dose response [4, 8] | Max Editing ([2]; Table 21, LNP with U-depleted Spy Cas9 mRNA and cyno specific sgRNAs) | Max Editing ([3]; Table 22, LNP with U-depleted Spy Cas9 mRNA and cyno specific sgRNAs) | Liver editing, dose response ([4]; 1, 0.3, 0.1, or 0.03 mg/kg, Cas9 mRNA (SEQ ID NO: 1) 1:1 by weight to guide, FIG. 26A) |
| --- | --- | --- | --- | --- | --- | --- | --- | --- | --- | --- |
| G000499: TTR sgRNA modified sequence, Human, SEQ ID No. 106; guide sequence of CR005303 (nucleic acid) guide: mU*mG*mA*rArUrCrCrArArGrUrGrUrCrCrUrCrUrGrArGrUrUrUrUrArGrAmGmCmUmAmGmAmAmAmUmAmGmCrArArGrUrUrArArArArUrArArGrGrCrUrArGrUrCrCrGrUrUrArUrCrAmAmCmUmUmGmAmAmAmAmAmGmUmGmGmCmAmCmCmGmAmGmUmCmGmGmUmGmCmU*mU*mU*mU | 1.17% | 66.40% | 65.23% | 96.31 | 74.94 | A dose response for both editing and serum TTR levels was evident | A dose response for both editing and serum TTR levels was evident |  |  |  |
| G000493: TTR sgRNA modified sequence, Human, SEQ ID No. 100; guide sequence of CR003368 (nucleic acid) guide: mA*mA*mG*rUrGrCrCrUrUrCrCrArGrUrArArGrArUrUrGrUrUrUrUrArGrAmGmCmUmAmGmAmAmAmUmAmGmCrArArGrUrUrArArArArUrArArGrGrCrUrArGrUrCrCrGrUrUrArUrCrAmAmCmUmUmGmAmAmAmAmAmGmUmGmGmCmAmCmCmGmAmGmUmCmGmGmUmGmCmU*mU*mU*mU | 2.67% | 41.40% | 38.90% | 63.95 | 61.15 |  |  |  |  |  |
| G000572: TTR sgRNA modified sequence, Human, SEQ ID No. 113; guide sequence of CR003385 (nucleic acid) guide: mC*mC*mC*rCrUrArCrUrCrCrUrArUrUrCrCrArCrCrArGrUrUrUrUrArGrAmGmCmUmAmGmAmAmAmUmAmGmCrArArGrUrUrArArArArUrArArGrGrCrUrArGrUrCrCrGrUrUrArUrCrAmAmCmUmUmGmAmAmAmAmAmGmUmGmGmCmAmCmCmGmAmGmUmCmGmGmUmGmCmU*mU*mU*mU |  |  |  | 97.94 | 100.31 |  |  |  |  |  |
| G000486: TTR sgRNA modified sequence, Human, SEQ ID No. 93; guide sequence of CR003339 (nucleic acid) guide: mA*mC*mA*rCrArArArUrArCrCrArGrUrCrCrArGrCrArGrUrUrUrUrArGrAmGmCmUmAmGmAmAmAmUmAmGmCrArArGrUrUrArArArArUrArArGrGrCrUrArGrUrCrCrGrUrUrArUrCrAmAmCmUmUmGmAmAmAmAmAmGmUmGmGmCmAmCmCmGmAmGmUmCmGmGmUmGmCmU*mU*mU*mU | 59.93% | 69.73% | 9.83% |  |  | A dose response for both editing and serum TTR levels was evident | A dose response for both editing and serum TTR levels was evident |  |  |  |
| G000500: TTR sgRNA modified sequence, Human, SEQ ID No. 107; guide sequence of CR003337 (nucleic acid) guide: mC*mC*mA*rGrUrCrCrArGrCrArArGrGrCrArGrArGrGrGrUrUrUrUrArGrAmGmCmUmAmGmAmAmAmUmAmGmCrArArGrUrUrArArArArUrArArGrGrCrUrArGrUrCrCrGrUrUrArUrCrAmAmCmUmUmGmAmAmAmAmAmGmUmGmGmCmAmCmCmGmAmGmUmCmGmGmUmGmCmU*mU*mU*mU | 3.83% | 65.53% | 62.00% | 88.70 | 58.04 |  |  |  |  |  |
| G000483: TTR sgRNA modified sequence, Human, SEQ ID No. 90; guide sequence of CR005298 (nucleic acid) guide: mU*mC*mC*rArCrUrCrArUrUrCrUrUrGrGrCrArGrGrArGrUrUrUrUrArGrAmGmCmUmAmGmAmAmAmUmAmGmCrArArGrUrUrArArArArUrArArGrGrCrUrArGrUrCrCrGrUrUrArUrCrAmAmCmUmUmGmAmAmAmAmAmGmUmGmGmCmAmCmCmGmAmGmUmCmGmGmUmGmCmU*mU*mU*mU | 28.50% | 47.90% | 19.57% | 77.39 | 56.52 |  |  |  |  |  |
| G000484: TTR sgRNA modified sequence, Human, SEQ ID No. 91; guide sequence of CR003367 (nucleic acid) guide: mA*mG*mA*rCrArCrCrArArArUrCrUrUrArCrUrGrGrArGrUrUrUrUrArGrAmGmCmUmAmGmAmAmAmUmAmGmCrArArGrUrUrArArArArUrArArGrGrCrUrArGrUrCrCrGrUrUrArUrCrAmAmCmUmUmGmAmAmAmAmAmGmUmGmGmCmAmCmCmGmAmGmUmCmGmGmUmGmCmU*mU*mU*mU | 33.83% | 62.97% | 29.23% | 94.14 | 0.22 |  |  |  |  |  |
| G000490: TTR sgRNA modified sequence, Human, SEQ ID No. 97; guide sequence of CR003366 (nucleic acid) guide: mA*mA*mA*rUrArGrArCrArCrCrArArArUrCrUrUrArCrGrUrUrUrUrArGrAmGmCmUmAmGmAmAmAmUmAmGmCrArArGrUrUrArArArArUrArArGrGrCrUrArGrUrCrCrGrUrUrArUrCrAmAmCmUmUmGmAmAmAmAmAmGmUmGmGmCmAmCmCmGmAmGmUmCmGmGmUmGmCmU*mU*mU*mU | 9.80% | 55.90% | 46.13% | 94.16 | 90.76 |  |  |  |  |  |
| G000502: TTR Cyno specific sgRNA modified sequence, SEQ ID No. 114; guide sequence of CR000689; cross homologous between mouse and cyno (nucleic acid) guide: mA*mC*mA*rCrArArArUrArCrCrArGrUrCrCrArGrCrGrGrUrUrUrUrArGrAmGmCmUmAmGmAmAmAmUmAmGmCrArArGrUrUrArArArArUrArArGrGrCrUrArGrUrCrCrGrUrUrArUrCrAmAmCmUmUmGmAmAmAmAmAmGmUmGmGmCmAmCmCmGmAmGmUmCmGmGmUmGmCmU*mU*mU*mU |  |  |  |  |  |  | A dose response for both editing and serum TTR levels was evident | 91.50 | 100.05 | A dose response for both editing and serum TTR levels was evident |
| G000494: TTR sgRNA modified sequence, Human, SEQ ID No. 101; guide sequence of CR003360 (nucleic acid) guide: mG*mU*mG*rArGrUrCrUrGrGrArGrArGrCrUrGrCrArUrGrUrUrUrUrArGrAmGmCmUmAmGmAmAmAmUmAmGmCrArArGrUrUrArArArArUrArArGrGrCrUrArGrUrCrCrGrUrUrArUrCrAmAmCmUmUmGmAmAmAmAmAmGmUmGmGmCmAmCmCmGmAmGmUmCmGmGmUmGmCmU*mU*mU*mU | 0.77% | 62.23% | 61.47% | 75.70 | 60.84 |  |  |  |  |  |
